The target of this experiment is T1, Myc-hFis1[1-152] (human), Q9Y3D6.
T1 chain: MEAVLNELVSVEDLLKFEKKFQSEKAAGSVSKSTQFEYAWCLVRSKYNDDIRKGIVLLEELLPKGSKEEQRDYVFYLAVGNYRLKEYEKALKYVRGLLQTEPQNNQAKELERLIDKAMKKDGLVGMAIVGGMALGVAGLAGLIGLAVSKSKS
Kind of experiment: cross-linking. The note with it: remark: other sources report otherwise.

For orientation: stoichiometry N means a count of units in the complex or per binding partner.

B1: Myc-hFis1[1-152], Q9Y3D6 1-152 (natural protein)
chain: MEAVLNELVSVEDLLKFEKKFQSEKAAGSVSKSTQFEYAWCLVRSKYNDDIRKGIVLLEELLPKGSKEEQRDYVFYLAVGNYRLKEYEKALKYVRGLLQTEPQNNQAKELERLIDKAMKKDGLVGMAIVGGMALGVAGLAGLIGLAVSKSKS
For the molecule B1, the stoichiometry N worked out at 2.

The values above are taken from article PMC2605612.
